Experimental data as given in publication PMC5261807 (2017).
Non-standard residues stand in square brackets, D forms with d. No end group written: not given here. Arg(Me2a) = CN(C)C(=N)NCCC[C@H](N)C(=O)O; Lys(Me3) = C[N+](C)(C)CCCC[C@H](N)C(=O)O; Arg(Me2s) = CN=C(NC)NCCC[C@H](N)C(=O)O; pT = C[C@@H](OP(=O)(O)O)[C@H](N)C(=O)O; Lys(Me2) = CN(C)CCCC[C@H](N)C(=O)O; pS = N[C@@H](COP(=O)(O)O)C(=O)O; Lys(Me) = CNCCCC[C@H](N)C(=O)O

T1: Bdf1 bromodomain 2 (GST-tagged, WT) (Saccharomyces cerevisiae (strain ATCC …, UniProt P35817))
T1 chain: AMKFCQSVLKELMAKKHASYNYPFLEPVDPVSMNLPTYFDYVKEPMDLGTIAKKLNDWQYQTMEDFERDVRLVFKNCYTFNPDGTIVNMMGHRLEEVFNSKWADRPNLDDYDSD

T2: Bdf1 bromodomain 1 (GST-tagged, WT) (Saccharomyces cerevisiae (strain ATCC …, UniProt P35817))
T2 chain: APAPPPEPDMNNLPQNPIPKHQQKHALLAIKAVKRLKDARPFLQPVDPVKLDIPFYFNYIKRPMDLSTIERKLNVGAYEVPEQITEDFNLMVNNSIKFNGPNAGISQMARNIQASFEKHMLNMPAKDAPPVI


Assays:
[1] = target: T1, Bdf1 bromodomain 2 (GST-tagged, WT); assay: histone peptide array probed with recombinant GST-bromodomain, signal normalised to myc peptide control
[2] = target: T2, Bdf1 bromodomain 1 (GST-tagged, WT); assay: as above

| Binder | binding score [1] | binding score [2] |
| --- | --- | --- |
| SGRGKQGGKARAK(Ac)AKSRSS [H2a 1-19] | 0.0115 | 0.00932 |
| ARTKQTARKSTGGKAPRKQ (A R T K Q T A R Kme3 S T G G Kac A P R K Q) | 0.0479 | 0.0133 |
| ARTKQTARKSTGGKAPRKQ (A R T K Q T A R K pS T G G K A P R K Q) | 0 | 0 |
| ARTKQTA[Arg(Me2a)][Lys(Me3)]S[pT]GGKAPRKQ | 0 | 0 |

Continued, values first:

| binding score [1] | binding score [2] | Binder |
| --- | --- | --- |
| 0 | 0.0151 | PRKQLATKAARK(Me)[pS]APATGG [H3 16-35] |
| 0.0271 | 0.00448 | SGRGKGGKGLGKGGAKRHR (S G R G K G G K G L G Kac G G A K R H R) [H4 1-19] |
| 0 | 0.00197 | A[Arg(Me2s)]T[Lys(Me)]QTA[Arg(Me2s)][Lys(Me2)]STGGKAPRKQ |
| 0.115 | 0.0299 | ARTKQTARKSTGGKAPRKQ (A R T K Q T A R K pS T G G Kac A P R K Q) |
